From publication PMC5577263

Molecular target: recombinant mouse α-synuclein amyloid fibrils (mouse) (UniProt O55042)
Test: SPR

Substance “recombinant full-length mouse PrP MoPrP(23-231) (from UniProt P04925 23-231) (natural protein)” has a KD, first of two (ratio of one of two koff values to kon) of 3.1 nM and a KD, second of two (ratio of one of two koff values to kon) of 36.5 nM.
